Laboratory results as given in the supplement of paper PMC12042874.
± gives the uncertainty stated by the source.

Assay: amyloid nucleation score (Sup35N fusion, yeast selection) (log enrichment); library NNK2; higher = more nucleation; inactive = no reads after selection
Outline: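 Sup35N fusions to peptides of 20 random codons were expressed in psi-negative yeast, induced 24 hours with 100 μM copper sulfate, and grown 7 days at 30°C on medium lacking adenine and uracil. Input and output plasmid inserts were sequenced by Illumina. The nucleation score is the DiMSum log enrichment of output over input reads, centred on the mode score of non-aggregating sequences. Sequences with under 100 input reads were excluded.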

Going from LIAQMM to LIERDNTWRATSRCITIESG, the amyloid nucleation score rises from -1.22 ± 0.48 to 1.17 ± 0.45.

Compared with LIFCGECTILNTGGGNRAWV, LIFRVFFALTVGIRRIMHML is lower in amyloid nucleation score: 8.361 ± 0.03 for the first, 5.83 ± 0.059 for the second.

Compared with LIGGLVSPISRYEVGWQDAV, LIGYI is higher in amyloid nucleation score: -0.213 ± 0.62 for the first, 1.96 ± 0.11 for the second.

Compared with LIIDQVIMNGINVPYTYLIY, LILNLVFFVIPDTVFYTSGL is higher in amyloid nucleation score: 4.15 ± 0.056 for the first, 6.732 ± 0.058 for the second.

Going from LINEFNAKNQSVRIFPVSEK to LINMLGWVRFY, the amyloid nucleation score rises from -0.645 ± 0.64 to 0.623 ± 0.44.

LIPIRALRHYFRFIVCV and LISRL are within error of each other in amyloid nucleation score: -0.142 ± 0.61 for the first, -0.54 ± 1.1 for the second.

First: LIVTLSDRWWEKGASLVESG
Second: LIYRCN
The amyloid nucleation score of the first is higher: 0.699 ± 0.15 for the first, -0.673 ± 1 for the second.

LIYVATMWGNHSFYDLWDMQ and LKCPALRSSSPNDLFVP are within error of each other in amyloid nucleation score: 0.112 ± 0.21 for the first, 0.626 ± 0.65 for the second.

LKGCQDLLLVDSGGSTTWYG and LKIQEPNRYW are within error of each other in amyloid nucleation score: -0.836 ± 0.63 for the first, -0.945 ± 0.76 for the second.

LKIYLCIPHRRL and LKLCLRCSNIVLPD are within error of each other in amyloid nucleation score: 0.082 ± 1.1 for the first, -0.434 ± 0.3 for the second.

Going from LKLRSVKSFDFVWMIVAAEV to LKWDASKAWILRCQCFRELW, the amyloid nucleation score falls from 0.482 ± 0.26 to -0.678 ± 0.76.

LKYVLARCFRKCWYVLWTSA and LKYVVTVHIMFMLSSWSQGC are within error of each other in amyloid nucleation score: -0.451 ± 0.54 for the first, -0.814 ± 0.79 for the second.

Compared with LLCCMWFDRWLWTGLAWITV, LLEAQSISCYRRGVYLLGQL is higher in amyloid nucleation score: 0.247 ± 0.24 for the first, 3.32 ± 0.067 for the second.

LLEFTLLTISQRPYTWNTVE and LLFARK are within error of each other in amyloid nucleation score: 0.862 ± 0.17 for the first, -0.038 ± 1.1 for the second.

Going from LLFLRYVVYFGNLDCLGLYM to LLFPQANMKDRSSPGVDWAQ, the amyloid nucleation score rises from -1.44 ± 1 to 2.72 ± 0.068.

Compared with LLGMVNTQLKGNHSYTYKSG, LLHIFLYGLSLILWWSHRTR is higher in amyloid nucleation score: -1.14 ± 0.55 for the first, 7.06 ± 0.079 for the second.

LLIREMEHLFVEAKVENLRE and LLKGVASVQSTDAVRHMWSS are within error of each other in amyloid nucleation score: 0.531 ± 0.33 for the first, 0.252 ± 0.8 for the second.

Compared with LLLTLCSDHMLNGNVVGHDW, LLPRDALFPPIFVIISECVF is lower in amyloid nucleation score: 4.05 ± 0.049 for the first, -0.063 ± 0.45 for the second.

Going from LLSVCFSRARC to LLTCTYMQF, the amyloid nucleation score falls from 1.07 ± 0.23 to -0.124 ± 0.54.

First: LLTGVISGYQIRWGTTSLNG
Second: LLTMGVGRVGAWEQN
The amyloid nucleation score of the first is higher: 2.49 ± 0.1 for the first, 0.801 ± 0.82 for the second.

Going from LLVGLIASPPGGTGVTLFPT to LLWQTYIPNAGENAVSSQLF, the amyloid nucleation score falls from 4.15 ± 0.049 to -0.87 ± 1.

First: LMAKVRLRVGLGHWLDVWG
Second: LMGKGMSTLGDDGVFSRG
The amyloid nucleation score of the first is higher: 2.93 ± 0.12 for the first, -0.378 ± 0.49 for the second.

First: LMINGRLRDITMDATVYCNS
Second: LMVSRFVF
The amyloid nucleation score of the first is higher: 0.764 ± 0.2 for the first, -0.206 ± 0.76 for the second.

LNCTYN and LNEVFDLVPSYCKFSVVRGL are within error of each other in amyloid nucleation score: -0.311 ± 0.79 for the first, -1.14 ± 0.64 for the second.

LNIHLFSVTGLCDEC and LNIQFGGSLHWKSGGVATEA are within error of each other in amyloid nucleation score: -0.344 ± 0.76 for the first, 0.103 ± 0.28 for the second.

Going from LNKQRSCFNVMGGWRKIYPS to LNLSWVCSLGRYFVGGYISF, the amyloid nucleation score falls from 0.783 ± 0.13 to -1.29 ± 0.63.

LNNIFDLQYWQLWMSRQVKS and LNNLLS are within error of each other in amyloid nucleation score: 0.809 ± 0.14 for the first, 0.315 ± 0.46 for the second.

LNNNGASNGFTTYSALNVG and LNRFGSSNSLITKFC are within error of each other in amyloid nucleation score: -0.59 ± 0.28 for the first, -1.58 ± 1 for the second.

Compared with LNVMFCNVVNGFYYMDSFVC, LNWGSNIQAGVHTSRPWGSY is lower in amyloid nucleation score: 6.838 ± 0.044 for the first, 0.248 ± 0.43 for the second.

LNYTRCQGSTKVDHSLGNLM and LPHESFNQHGKLFMAD are within error of each other in amyloid nucleation score: -0.482 ± 0.31 for the first, 0.054 ± 0.46 for the second.

Compared with LPKREPGDKGTLLYYDQELS, LPQMNMGFLGSLNFEGMKRA is higher in amyloid nucleation score: 0.167 ± 0.53 for the first, 1.47 ± 0.2 for the second.

Going from LPVGPLVRDNTWHRRVQRWL to LPVHANNGVNMFILIVPPGS, the amyloid nucleation score rises from 1.11 ± 0.29 to 5.948 ± 0.051.

Compared with LQCIGNYSDWGSMVGREQSK, LQDYCACNGVSCCIVYCKSF is higher in amyloid nucleation score: -0.066 ± 1 for the first, 8.693 ± 0.053 for the second.

LQLASNVHEHKQNGLSHRIN and LRFRGV are within error of each other in amyloid nucleation score: 0.439 ± 0.5 for the first, 0.339 ± 0.28 for the second.

LRGSFNLVSYFTQLRSCDYF and LRGYVY are within error of each other in amyloid nucleation score: -1.27 ± 0.78 for the first, 0.228 ± 1 for the second.

LRPDSNWTGVESLFR and LRPDYLERYFWLWHSTDKLF are within error of each other in amyloid nucleation score: -0.66 ± 0.55 for the first, -1.14 ± 0.49 for the second.

Going from LRQYKRALAVGLDWFPSVLR to LRRTTGYSKLTCLTHG, the amyloid nucleation score rises from 0.113 ± 0.8 to 4.34 ± 0.048.

First: LRRVSGRLDSIWSWCVRCNE
Second: LRSHLEYGRLCVCTQELMRR
The amyloid nucleation score of the first is lower: -1.02 ± 1.1 for the first, 4.882 ± 0.041 for the second.

LRSSKKCYTILYVSYTLK and LRSWSLAMRGDIMGTVRWLR are within error of each other in amyloid nucleation score: -1.15 ± 1.1 for the first, 0.413 ± 0.56 for the second.

First: LRVWYDSSAVDMLNVLMSFP
Second: LRWAYMNTARQACMKAENG
The amyloid nucleation score of the first is higher: 5.737 ± 0.032 for the first, -0.079 ± 0.62 for the second.

Compared with LRWDGEDWRWDALWVTSSVC, LRYIFKMS is lower in amyloid nucleation score: 0.512 ± 0.2 for the first, -1.34 ± 0.49 for the second.

First: LRYVVNPF
Second: LSASW
The amyloid nucleation score of the first is lower: -0.979 ± 0.37 for the first, 1.44 ± 0.38 for the second.

LSILCGDCSDGRS and LSLLVSLTRTMFNLNNTCTA are within error of each other in amyloid nucleation score: -0.245 ± 0.2 for the first, -0.17 ± 0.65 for the second.

Compared with LSMERSVGFYDTVTLWLQRK, LSNAYRTGFPLICSLNNHRH is lower in amyloid nucleation score: 5.9 ± 0.056 for the first, 1.03 ± 0.68 for the second.

Going from LSNLEAEAWMRAYCIRVKIT to LSNYARGRVDVTLKNYLLLE, the amyloid nucleation score falls from 2.16 ± 0.1 to 0.476 ± 0.51.

First: LSPLIAAHSTERVYWY
Second: LSPPYYYHMNCLPYNMSIWP
The amyloid nucleation score of the first is lower: 0.262 ± 0.46 for the first, 2.39 ± 0.09 for the second.

LSPYYSLCVSGSTWSAVQPL and LSRESTCIFSMNKDVFS are within error of each other in amyloid nucleation score: 0.476 ± 0.51 for the first, 0.016 ± 1.1 for the second.

First: LSRIRVHSIRLYSVFPVMFC
Second: LSRLNFGIFDKVTAATGLMK
The amyloid nucleation score of the first is higher: 3.67 ± 0.072 for the first, -1.26 ± 0.78 for the second.

Compared with LSRQFRRYLMLSLFYFVLLP, LSSHVCGGM is higher in amyloid nucleation score: -1.21 ± 0.38 for the first, 4.8 ± 0.054 for the second.

Going from LSYLHG to LSYVWYTQIARPGNSGFNLL, the amyloid nucleation score rises from -0.913 ± 0.63 to 2.12 ± 0.14.

Going from LTCSKSPIWWAIIFVGYFTN to LTIRGKVTSTVAMLLDFLDS, the amyloid nucleation score rises from 0.022 ± 0.62 to 5.86 ± 0.062.

First: LTLHICRAAVYSYGTLS
Second: LTLIVNPLVNSPPGPQASLT
The amyloid nucleation score of the first is higher: 1.63 ± 0.12 for the first, 0.735 ± 0.23 for the second.

Going from LTLLHFRREDTHCSGTGTPC to LTRMKT, the amyloid nucleation score falls from 1 ± 0.2 to -0.311 ± 0.63.

Compared with LTSFGDEC, LTSNPVPSNLT is higher in amyloid nucleation score: -0.153 ± 1.1 for the first, 3.35 ± 0.076 for the second.

Going from LTSSA to LTTVGHSVKLSWRVLSG, the amyloid nucleation score rises from -0.315 ± 0.49 to 1.9 ± 0.18.

LTVDCQDSLLYWHRMMSRPL and LTYRVCHEVQGQRYCMAREH are within error of each other in amyloid nucleation score: 0.853 ± 0.31 for the first, 0.174 ± 0.74 for the second.

First: LTYYLSYCHYRRTYLAGLLQ
Second: LVEFSSRFQLGFTGSVNS
The amyloid nucleation score of the first is lower: -0.249 ± 0.2 for the first, 1.21 ± 0.16 for the second.

In the case of LICLSMSQCMDCNLGNSWWV, the amyloid nucleation score is reported as “inactive”.
With LIFRFLGLVMLFQ the amyloid nucleation score was “inactive”.
For LLCRTCFRVQYAYDNLVMFL, the amyloid nucleation score was “inactive”.
With LNFFNDR the amyloid nucleation score was “inactive”.
For LNKNRHGVGIFGIIKYKDMT, the amyloid nucleation score was “inactive”.
With LNMVFW the amyloid nucleation score was “inactive”.
In the case of LNYRH, the amyloid nucleation score is reported as “inactive”.
With LRAWDYRISNSHTRLDIDFT the amyloid nucleation score was “inactive”.
In the case of LRIGRYQN, the amyloid nucleation score is reported as “inactive”.
In the case of LSTANSNSRAVFIIKMRGLL, the amyloid nucleation score is reported as “inactive”.
For LSYRRFFRLILKGAVG, the amyloid nucleation score was “inactive”.
With LTIVWLVVVYGLWGVSTFSL the amyloid nucleation score was “inactive”.
